Measured values: KR20140018819A (dated 2014)
Numbering of substitutions follows the chain as printed.

T1: TM4SF5 (transmembrane 4 L six family member 5) 단백질 (human, UniProt O14894 1-197)
T1 sequence (looked up): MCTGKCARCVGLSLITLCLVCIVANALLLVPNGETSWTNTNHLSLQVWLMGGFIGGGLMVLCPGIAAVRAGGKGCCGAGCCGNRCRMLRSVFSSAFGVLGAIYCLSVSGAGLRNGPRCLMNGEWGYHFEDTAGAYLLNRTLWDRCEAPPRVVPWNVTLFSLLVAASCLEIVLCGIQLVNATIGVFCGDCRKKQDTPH

B1: 항-TM4SF5 항체 #1 (scFv-Fc) (Fc fusion)
VH: EVQLQQFGAELVRPGASVTLSCKASGYTFTDYEMHWVKQTPVHGLEWIGAIDPETGGTAYNQKFKGKAILTADKSSSTAYMELRSLTSEDSAVYFCARLTLFYGNYDWPFDVWGTGTSVTVSS
VL: DIVMTQSQKFMSTSVGDRVSITCKASQNVRTAVAWYQQKPGQSPKLLIYWASTRHTGVPDRFTGSGSGTDFTLTISNVQSEDLADYFCQQYSSYPFTFGSGTKLEIK
B2: 항-TM4SF5 항체 #27 (scFv-Fc) (Fc fusion)
VH: QVQLQQFGAELVRPGASVTLSCKASGYTFTDYEMHWVKQTPVHGLEWIGAIDPETGGTAYNQKFKGKAILTADKSSSTAYMELRSLTSEDSAVYYCTRPYLGYWGQGTTVTVSS
VL: DAVVTQTPLSLPVSLGDQASISCRSSQSLVHSNGNTYLHWYLQKPGQSPKLLIYKVSNRFSGVPDRFSGSGSGTDFTLKISRVEAEDLGVYYCFQGSHIPLTFGAGTKLELK
B3: 항-TM4SF5 항체 #79 (scFv-Fc) (Fc fusion)
VH: B2 VH with Q1G, F7S, T19K, R98V, P99Y, Y100G, G102A, T109L, S114A
VL: B2 VL with A2V, V4M, Y92F, F94S, G96N, S97T, I99V, L101Y, A105G

Each binder was assayed against T1, TM4SF5 (transmembrane 4 L six family …) (assay: cell-based or functional assay).

In order of falling “간암세포주의 침윤 억제 (Transwell assay, Tp 세포, 항체 20㎍/㎖, 48시간)” value:
1. B1  83%
2. B2  56%
3. B3  49%
